Reference: patent US20100272709A1 (GENERAL HOSPITAL, published 2010)

Legend:
[1] = target: wild type dynamin (dynWT; recombinant dynamin 1) (UniProt Q05193)
[2] = target: wild type dynamin (dynWT; recombinant dynamin 1), Q05193
[3] = target: dynK44A (dominant-negative dynamin mutant that cannot bind GTP), Q05193
[4] = target: T1, dynR725A (GTP-hydrolysis impaired dynamin mutant)
T1 chain: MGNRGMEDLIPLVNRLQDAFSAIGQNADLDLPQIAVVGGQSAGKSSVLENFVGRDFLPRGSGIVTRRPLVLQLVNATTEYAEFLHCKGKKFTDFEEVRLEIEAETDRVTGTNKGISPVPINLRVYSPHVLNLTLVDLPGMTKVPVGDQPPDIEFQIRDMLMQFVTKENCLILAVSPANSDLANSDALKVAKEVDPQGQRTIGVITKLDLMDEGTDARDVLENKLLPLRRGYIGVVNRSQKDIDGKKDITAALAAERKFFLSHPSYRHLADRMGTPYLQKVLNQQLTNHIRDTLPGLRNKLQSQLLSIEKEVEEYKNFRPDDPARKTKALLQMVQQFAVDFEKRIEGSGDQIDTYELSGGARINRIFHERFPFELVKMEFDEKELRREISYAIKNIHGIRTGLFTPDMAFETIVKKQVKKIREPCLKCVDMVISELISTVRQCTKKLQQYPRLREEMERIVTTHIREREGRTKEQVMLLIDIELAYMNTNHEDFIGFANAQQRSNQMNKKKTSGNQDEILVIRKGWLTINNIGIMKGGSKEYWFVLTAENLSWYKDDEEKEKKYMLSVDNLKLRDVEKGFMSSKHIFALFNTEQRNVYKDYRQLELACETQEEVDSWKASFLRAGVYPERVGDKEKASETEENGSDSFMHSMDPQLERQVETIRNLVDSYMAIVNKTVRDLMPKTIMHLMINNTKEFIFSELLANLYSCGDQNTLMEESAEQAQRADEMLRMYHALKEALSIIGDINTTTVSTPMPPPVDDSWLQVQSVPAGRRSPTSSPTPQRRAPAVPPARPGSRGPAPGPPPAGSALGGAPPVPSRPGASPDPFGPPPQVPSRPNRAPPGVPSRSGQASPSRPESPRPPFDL

cathepsin B (CatB, Sigma)
cleavage of purified dynamin by CatB, Western blot [1]: incubation of dynamin with CatB generated p55 in a nucleotide-independent manner

purified cathepsin L (commercial)
cleavage of purified dynamin by CatL at pH 7.0 with GTP, Western blot [1]: addition of GTP resulted in the generation of a prominent proteolytic fragment with a molecular weight of -40 kD (p40)
cleavage of purified dynamin by CatL at pH 7.0 with GTPγS, Western blot [1]: addition of GTPγS, (non-hydrolysable GTP analog) did not stimulate cleavage by CatL
cleavage of purified dynamin by CatL at pH 7.0 without nucleotide, Western blot [1]: CatL did not cause significant cleavage of purified dynamin at pH 7.0
cleavage of recombinant dynamin 1 by purified cathepsin L at pH 7.0 with GTP, Western blot with GTPase antibody [1]: addition of GTP in the assay resulted in significant cleavage of dynamin by cathepsin L
cleavage of recombinant dynamin 1 by purified cathepsin L at pH 7.0 with GTPγS [1]: Addition of GTPγS, non-hydrolyzable GTP homolog abolished dynamin cleavage by cathepsin L
cleavage of recombinant dynamin by CatL at pH 5.0 and 6.0, silver staining [1]: At pH 5.0 and 6.0, CatL was highly reactive towards recombinant dynamin, even in the absence of GTP
cleavage of recombinant dynamin by CatL at pH 5.0 and 6.0 with GTPγS, silver staining [1]: this proteolysis was completely inhibited by addition of GTP7S
cleavage of recombinant dynamin by cathepsin L at pH 5.0 and 6.0 [1]: at pH 5.0 and 6.0 cathepsin L potently proteolyzed recombinant dynamin

B1: endogenous mouse cathepsin L induced by LPS in podocytes and kidney (34 kD cytoplasmic short form) (protein)
chain: MRMIQLHNGEYSNGQHGFSMEMNAFGDMTNEEFRQVVNGYRHQKHKKGRLFQEPLMLKIPKSVDWREKGCVTPVKNQGQCGSCWAFSASGCLEGQMFLKTGKLISLSEQNLVDCSHAQGNQGCNGGLMDFAFQYIKENGGLDSEESYPYEAKDGSCKYRAEFAVANDTGFVDIPQQEKALMKAVATVGPISVAMDASHPSLQFYSSGIYYEPNCSSKNLDHGVLLVGYGYEGTDSNKNKYWLVKNSWGSEWGMEGYIKIAKDRDNHCGLATAASYPVVN
p40 proteolytic fragment in cytosol of LPS-treated podocytes expressing dynWT, Western blot [2]: Addition of specific cathepsin L inhibitor (Z-FF-FMK, Calbiochem), to the tissue cultured podocytes treated with LPS resulted specifically in the loss of p40
p40 proteolytic fragment in cytosol of LPS-treated podocytes expressing dynK44A, Western blot [3]: LPS treatment of podocytes expressing dynK44A, enzyme that cannot bind GTP, did not result in detectable levels of p40
p40 proteolytic fragment in cytosol of LPS-treated podocytes expressing dynR725A, Western blot [4]: LPS treatment of podocytes expressing dynR725A completely abolished presence of the p40
p40 proteolytic fragment in cytosol of podocytes expressing dynR725A before LPS, Western blot [4]: significant amount of p40 was present in cells expressing dynR725A prior to LPS treatment
